Assay results taken from patent US20240010748A1.

What was measured:
[1] = target: Cynomolgus macaques Claudin 18 (cynoCLDN18) on stably-transfected HEK293 cells (Cynomolgus macaques); assay: FACS on HEK293-cynoCLDN18 cells
[2] = target: murine Claudin 18.2 (mCLDN18.2) on stably-transfected HEK293 cells (murine) (UniProt P56857); assay: FACS on HEK293-mCLDN18.2 cells
[3] = target: human CD3 (hCD3) naturally expressed on Jurkat cells (human) (UniProt P07766); assay: FACS on Jurkat cells
[4] = target: human CD3 (hCD3) naturally expressed on Jurkat cells (human) (UniProt P07766); assay: cell-based or functional assay
[5] = target: human Claudin 18.2 (hCLDN18.2) on stably-transfected HEK293 cells (human) (UniProt P56856); assay: FACS on HEK293-hCLDN18.2 cells
Sequence of human Claudin 18.2 (hCLDN18.2) on stably-transfected HEK293 cells (human) (P56856 other isoform, or with tags, fused parts or gaps limits assumed): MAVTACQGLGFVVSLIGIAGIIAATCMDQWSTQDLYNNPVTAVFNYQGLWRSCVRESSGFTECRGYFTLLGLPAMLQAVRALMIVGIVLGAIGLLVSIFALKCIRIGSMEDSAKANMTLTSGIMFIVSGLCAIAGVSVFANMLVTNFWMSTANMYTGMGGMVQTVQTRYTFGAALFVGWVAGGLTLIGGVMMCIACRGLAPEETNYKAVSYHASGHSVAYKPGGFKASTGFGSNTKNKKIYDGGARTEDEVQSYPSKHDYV

Sequence of human CD3 (hCD3) naturally expressed on Jurkat cells (human) (P07766 23-207): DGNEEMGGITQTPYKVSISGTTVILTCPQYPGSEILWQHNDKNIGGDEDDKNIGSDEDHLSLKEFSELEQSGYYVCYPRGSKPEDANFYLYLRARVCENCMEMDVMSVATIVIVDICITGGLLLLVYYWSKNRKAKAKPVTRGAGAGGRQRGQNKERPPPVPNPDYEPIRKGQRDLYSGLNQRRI

Negative-IgG1AA (antibody)
MFI (Max) [1]: 136 MFI
MFI (Max) [2]: 75 MFI
Top mean fluorescence intensity (Top MFI) [3]: 110 MFI
Jurkat-NFAT luciferase reporter, Fluorescence value (Max) [4]: 0
Top mean fluorescence intensity (Top MFI) [5]: 359 MFI
